Laboratory results reported in patent US20190284293A1 (Bristol-Myers Squibb, published 2019).
Where “and” joins values, the source holds several entries; their conditions need not be identical. Equal values may be shown once.

Key:
[1] = molecular target: T1, N-hCD73-his (N-terminal domain of human CD73, residues 26-336, His tag) (human, UniProt P21589 26-336); experiment: SPR, mAb captured on protein A
T1 sequence: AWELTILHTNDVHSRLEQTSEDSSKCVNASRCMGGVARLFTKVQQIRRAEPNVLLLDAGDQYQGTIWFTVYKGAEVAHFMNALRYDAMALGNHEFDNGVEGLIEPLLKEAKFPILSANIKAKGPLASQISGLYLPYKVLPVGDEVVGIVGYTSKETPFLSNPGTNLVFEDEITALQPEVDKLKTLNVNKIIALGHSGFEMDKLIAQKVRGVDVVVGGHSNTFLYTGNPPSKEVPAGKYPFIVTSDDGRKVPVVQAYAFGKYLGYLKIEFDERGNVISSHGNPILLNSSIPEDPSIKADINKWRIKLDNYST
Description: (§1) For these experiments, protein A (Pierce) was immobilized to a density of 3000-4000 RU on flow cells 1-4 of a CM5 sensor chip (GE Healthcare) using standard ethyl(dimethylaminopropyl) carbodiimide (EDC)/N-hydroxysuccinimide […] chemistry, with ethanolamine blocking, in a running buffer of 0.01 M HEPES pH 7.4, 0.15 M NaCl, 3 mM EDTA, 0.005% v/v tween 20. […] The running buffer for the kinetic experiments was 10 mM sodium phosphate, 130 mM sodium chloride, 0.05% tween 20, pH 7.1. The surfaces were regenerated after each cycle using two 30 s pulses of 10 mM glycine pH 1.5 at a flow rate of 30 μl/min. Sensogram data was double-referenced and then fitted to a 1:1 Langmuir model using Biacore T100 evaluation software v2.0.4, to determine the association rate constant (ka), the dissociation rate constant (kd), and the equilibrium dissociation constant (KD).

[2] = molecular target: T1, N-hCD73-his (N-terminal domain of human …); experiment: SPR
human CD73 on cells [3] = molecular target: T2, human CD73 on cells (human, UniProt P21589 27-549); experiment: cell-based or functional assay
T2 sequence: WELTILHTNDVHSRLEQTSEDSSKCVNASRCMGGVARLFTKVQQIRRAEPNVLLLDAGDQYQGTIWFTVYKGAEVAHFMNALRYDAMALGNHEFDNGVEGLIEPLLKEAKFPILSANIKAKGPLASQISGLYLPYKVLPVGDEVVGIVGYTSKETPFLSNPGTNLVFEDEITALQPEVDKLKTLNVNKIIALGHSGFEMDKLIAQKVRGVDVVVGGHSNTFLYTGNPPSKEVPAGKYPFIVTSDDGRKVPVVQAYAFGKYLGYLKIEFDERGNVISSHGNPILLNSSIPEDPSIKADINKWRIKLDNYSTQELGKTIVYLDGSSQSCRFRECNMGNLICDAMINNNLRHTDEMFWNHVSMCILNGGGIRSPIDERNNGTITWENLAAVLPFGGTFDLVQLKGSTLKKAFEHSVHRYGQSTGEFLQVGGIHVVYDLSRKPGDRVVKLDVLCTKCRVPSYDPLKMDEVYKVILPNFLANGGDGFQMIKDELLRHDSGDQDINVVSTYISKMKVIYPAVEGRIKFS

[4] = molecular target: T3, rhCD73 bound to his-tag magnet beads (human, UniProt P21589 27-547, limits assumed); experiment: cell-based or functional assay
T3 sequence: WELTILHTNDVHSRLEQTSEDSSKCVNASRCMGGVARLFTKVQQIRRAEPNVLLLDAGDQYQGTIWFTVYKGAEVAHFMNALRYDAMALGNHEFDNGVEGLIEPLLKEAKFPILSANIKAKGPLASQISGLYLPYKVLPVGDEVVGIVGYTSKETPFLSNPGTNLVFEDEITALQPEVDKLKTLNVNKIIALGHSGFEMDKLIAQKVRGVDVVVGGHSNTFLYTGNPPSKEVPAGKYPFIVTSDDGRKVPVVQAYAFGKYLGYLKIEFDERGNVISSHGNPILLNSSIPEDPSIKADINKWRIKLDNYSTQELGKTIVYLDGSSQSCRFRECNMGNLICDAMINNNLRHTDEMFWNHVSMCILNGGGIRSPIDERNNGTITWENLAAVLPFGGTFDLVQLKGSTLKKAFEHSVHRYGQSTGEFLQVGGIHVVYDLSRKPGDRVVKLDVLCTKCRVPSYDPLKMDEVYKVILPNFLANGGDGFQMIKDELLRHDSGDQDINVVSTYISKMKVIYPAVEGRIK

human CD73 on cells [5] = molecular target: T2, human CD73 on cells; experiment: binding titration on Calu6 cells, average of 2-6 experiments
human CD73 on cells [6] = molecular target: T2, human CD73 on cells; experiment: cell-based or functional assay; remark: listed apart in the source
human CD73 on cells [7] = molecular target: T2, human CD73 on cells; experiment: cell-based or functional assay; remark: listed apart in the source
[8] = molecular target: T1, N-hCD73-his (N-terminal domain of human …); experiment: SPR, comparison of all IgG2 molecules
Description: as §1

[9] = molecular target: T4, cynomolgus CD73 on transfected CHO cells (cynomolgus, UniProt P21589 27-549 (human entry)); experiment: flow cytometry, CHO-cynoCD73 cells
T4 construct: also called CHO-cynoCD73; CHO-Cynomolgus CD73 transfectants
T4 chain: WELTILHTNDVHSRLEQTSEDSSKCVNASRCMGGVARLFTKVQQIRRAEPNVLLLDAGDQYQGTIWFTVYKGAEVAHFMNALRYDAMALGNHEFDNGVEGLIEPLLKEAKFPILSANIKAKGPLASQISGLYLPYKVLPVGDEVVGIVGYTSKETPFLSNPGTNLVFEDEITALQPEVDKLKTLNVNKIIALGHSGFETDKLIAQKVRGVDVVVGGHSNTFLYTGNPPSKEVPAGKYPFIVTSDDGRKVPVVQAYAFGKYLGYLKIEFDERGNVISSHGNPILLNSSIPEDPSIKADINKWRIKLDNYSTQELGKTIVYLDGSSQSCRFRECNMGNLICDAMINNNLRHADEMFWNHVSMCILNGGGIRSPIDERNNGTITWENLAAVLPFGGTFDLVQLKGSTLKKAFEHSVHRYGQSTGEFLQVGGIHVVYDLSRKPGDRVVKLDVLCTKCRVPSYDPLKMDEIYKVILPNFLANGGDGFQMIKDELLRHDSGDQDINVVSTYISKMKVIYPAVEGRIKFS
Description: Titration binding curves were produced with CD73 antibodies on Calu6 (CD73 endogenous expressors; human pulmonary adenocarcinoma cell line), DMS114 (CD73 negative; human small cell lung cancer cell line), CHO-cynoCD73 (cynoCD73-transfected) and CHO-K1 (cynoCD73 negative), cells using Alexa Fluor® 647 Goat Anti-Human IgG (H+L) as a secondary antibody, Invitrogen Cat#A-21445, using the following method: 100000 cells were plated in 100 uL PBS+2% FBS per well and blocked for 20 min. Using a U-bottom 96-deep well plate, volumes of antibody and PBS+2% FBS were combined as dictated by Table 12 below.
An 8-point serial dilution was performed by diluting a sixth of the volume (90 uL) into […], PBS+2% FBS. The cell plate was spun down for 5 minutes at 1500 rpm. 100 uL of diluted antibody was added per well of the plate. 100 uL PBS+2% FBS were added to all other wells. […] The plates were spun down at 1500 rpm for 5 min and washed in 200 uL PBS+2% FBS per well. The plates were washed again, resuspended in 200 uL 2% FBS in PBS per well and the samples were run.

| Binder | Kd [1] | koff [1] | kon [1] | Kd [2] | Ymax, cAMP HTRF assay (percent of 100 nM 11F11 control) (human CD73 on cells [3]) | EC50 (nM), inhibition of bead-bound human CD73 enzymatic activity [4] | EC50 (human CD73 on cells [5]) | EC50 (nM), high-content internalization assay, Calu6, 2 h (human CD73 on cells [6]) | Ymax, high-content internalization assay (percent of 100 nM 11F11) (human CD73 on cells [6]) | EC50 SKMEL24 inhibition (human CD73 on cells [7]) | Kd [8] | EC50 [9] |
| --- | --- | --- | --- | --- | --- | --- | --- | --- | --- | --- | --- | --- |
| CD73.11-IgG2-C219S (antibody, 4D4 variable regions; also called CD73.11-IgG2CS; mAb-CD73.11-Vh-hHC-IgG2-C219S) heavy: QVQLVESGGGVVQPGRSLRLSCAASGFTFSNYGMHWVRQAPGKGLEWVAVIWYDESNKYYADSVKGRFTISRDNSKNTLFLQMNSLRAEDTAVYYCARGYNSRWYPDAFDIWGQGTMVTVSSASTKGPSVFPLAPCSRSTSESTAALGCLVKDYFPEPVTVSWNSGALTSGVHTFPAVLQSSGLYSLSSVVTVPSSNFGTQTYTCNVDHKPSNTKVDKTVERKSCVECPPCPAPPVAGPSVFLFPPKPKDTLMISRTPEVTCVVVDVSHEDPEVQFNWYVDGVEVHNAKTKPREEQFNSTFRVVSVLTVVHQDWLNGKEYKCKVSNKGLPAPIEKTISKTKGQPREPQVYTLPPSREEMTKNQVSLTCLVKGFYPSDIAVEWESNGQPENNYKTTPPMLDSDGSFFLYSKLTVDKSRWQQGNVFSCSVMHEALHNHYTQKSLSLSPG light: not shown | 3.5 nM and 6.5 nM | 0.00028 s⁻¹ and 0.00051 s⁻¹ | 80000 M⁻¹ s⁻¹ and 79000 M⁻¹ s⁻¹ | ~5 nM | – | – | – | – | – | – | – | – |
| 4C3 (antibody, human IgG1, kappa, V domains shown, IgG1za; also called 4C3-1) VH: EVQLVESGGGLVQPGRSLRLSCAASGFTFDDYAMHWVRQAPGKGLEWVSGISWKSGSIGYADSVKGRFTISRDNAKNSLYLQMNSLRAEDTALYYCVKGYYVILTGLDYWGQGTLVTVSS VL: not shown | – | – | – | 100 to 200 nM | 80% | – | – | – | – | – | – | – |
| 4D4 (antibody, human IgG2, kappa, IgG2; also called 4D4-1) heavy: QVQLVESGGGVVQPGRSLRLSCAASGFTFSNYGMHWVRQAPGKGLEWVAVIWYDESNKYYADSVKGRFTISRDNSKNTLFLQMNSLRAEDTAVYYCARGYNSRWYPDAFDIWGQGTMVTVSSASTKGPSVFPLAPCSRSTSESTAALGCLVKDYFPEPVTVSWNSGALTSGVHTFPAVLQSSGLYSLSSVVTVPSSNFGTQTYTCNVDHKPSNTKVDKTVERKCCVECPPCPAPPVAGPSVFLFPPKPKDTLMISRTPEVTCVVVDVSHEDPEVQFNWYVDGVEVHNAKTKPREEQFNSTFRVVSVLTVVHQDWLNGKEYKCKVSNKGLPAPIEKTISKTKGQPREPQVYTLPPSREEMTKNQVSLTCLVKGFYPSDIAVEWESNGQPENNYKTTPPMLDSDGSFFLYSKLTVDKSRWQQGNVFSCSVMHEALHNHYTQKSLSLSPGK light: not shown | 9.4 nM and 6.2 nM | 0.00077 s⁻¹ and 0.00049 s⁻¹ | 82000 M⁻¹ s⁻¹ and 79000 M⁻¹ s⁻¹ | ~5 nM | – | 5.31 nM | 0.82 nM | 0.38 nM | 104% | – | – | – |
| 11F11 (antibody, human IgG2, kappa, V domains shown, Human IgG2; also called 11F11-2) VH: QVQLVESGGGVVQPGRSLRLSCATSGFTFSNYGMHWVRQAPGKGLEWVAVILYDGSNKYYPDSVKGRFTISRDNSKNTLYLQMNSLRAEDTAVYYCARGGSSWYPDSFDIWGQGTMVTVSS VL: DIQMTQSPSSLSASVGDRVTITCRASQGISSWLAWYQQKPEKAPKSLIYAASSLQSGVPSRFSGSGSGTDFTLTISSLQPEDFATYYCQQYNSYPLTFGGGTKVEIKR | 0.56 nM and 1.6 nM | – | – | – | 76% | 3.98 nM | – | 0.58 nM | 98% | 3.15 nM | 1.1 nM | 0.58 nM |
